Patent US20230227526A1 (published 2023)

Target: T1, COL6A3 (peptide named COL6A3-642) peptide on HLA-A*02:01 (human)
T1 peptide: FLLDGSANV
Test: multimer staining

B1: COL6A3-642 C4 TCR (TRAV1-2*01F-TRBV9*01F) (TCR, V domains shown)
Valpha: GQNIDQPTEMTATEGAIVQINCTYQTSGFNGLFWYQQHAGEAPTFLSYNVLDGLEEKGRFSSFLSRSKGYSYLLLKELQMKDSASYLCAVRADRGSTLGRLYFGRGTQLTVWP
Vbeta: DSGVTQTPKHLITATGQRVTLRCSPRSGDLSVYWYQQSLDQGLQFLIQYYNGEERAKGNILERFSAQQFPDLHSELNLSSLELGDSALYFCASSVDGGASGEQFFGPGTRLTVL
binding result: recognises
